The values that follow are results of earlier work, collected in PMC7277390.

This series concerns the target serum albumin (MSA) (Mus musculus) (UniProt P07724).
UniProt P07724, sequence (P07724 25-608): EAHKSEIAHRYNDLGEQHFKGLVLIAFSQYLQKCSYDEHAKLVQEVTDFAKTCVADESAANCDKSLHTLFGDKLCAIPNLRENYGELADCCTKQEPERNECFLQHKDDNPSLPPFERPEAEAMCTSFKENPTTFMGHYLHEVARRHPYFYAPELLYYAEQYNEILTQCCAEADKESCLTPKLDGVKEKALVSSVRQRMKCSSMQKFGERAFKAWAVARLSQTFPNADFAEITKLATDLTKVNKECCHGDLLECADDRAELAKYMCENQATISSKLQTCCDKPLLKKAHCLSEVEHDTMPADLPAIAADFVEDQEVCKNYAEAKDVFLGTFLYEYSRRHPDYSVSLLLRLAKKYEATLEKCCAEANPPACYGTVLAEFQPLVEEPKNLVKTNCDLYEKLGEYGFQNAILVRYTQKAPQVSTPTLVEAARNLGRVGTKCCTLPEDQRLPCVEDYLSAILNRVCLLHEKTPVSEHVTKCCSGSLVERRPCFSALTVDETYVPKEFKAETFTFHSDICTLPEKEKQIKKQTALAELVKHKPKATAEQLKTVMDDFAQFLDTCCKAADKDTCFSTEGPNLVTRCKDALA

For orientation: Kd means the concentration at which binding is half-saturated. With FcRn (from UniProt Q61559), the Kd was 546 nM.
